Assay [1] deals with T1, JRFL gp120 monomer expressed in HEK 293S cells (HIV-1 clade B, isolate JR-FL, UniProt Q75760, strain).
T1 construct: also called gp120 with immature oligomannose glycans
In words: ITC. The note with it: both partners purified.

Another assay has as its target T2, soluble CD4 (UniProt P01730).
T2 construct: also called sCD4
In words: ITC. The settings on record: both partners purified.

B1: PGT123 Fab (Fab, V domains shown)
VH: QLHLQESGPGLVKPPETLSLTCSVSGASINDAYWSWIRQSPGKRPEWVGYVHHSGDTNYNPSLKRRVTFSLDTAKNEVSLKLVDLTAADSATYFCARALHGKRIYGIVALGELFTYFYMDVWGKGTAVTVSS
VL: SSMSVSPGETAKISCGKESIGSRAVQWYQQKPGQPPSLIIYNNQDRPAGVPERFSASPDFRPGTTATLTITNVDAEDEADYYCHIYDARGGTNWVFDRGTTLTVL
As for B1, the binding result in assay [1] was “binds”.

B2: JRFL gp120 monomer (near full-length gp120 monomeric construct) (natural protein)
chain: not shown
notes: also called monomeric gp120
As to B2, in the assay with soluble CD4, the dissociation constant (Kd) (in general, a measure of binding affinity in units of concentration) is 21 nM.

B3: PGT121 Fab (Fab, V domains shown)
VH: QMQLQESGPGLVKPSETLSLTCSVSGASISDSYWSWIRRSPGKGLEWIGYVHKSGDTNYSPSLKSRVNLSLDTSKNQVSLSLVAATAADSGKYYCARTLHGRRIYGIVAFNEWFTYFYMDVWGNGTQVTVSS
VL: DISVAPGETARISCGEKSLGSRAVQWYQHRAGQAPSLIIYNNQDRPSGIPERFSGSPDSPFGTTATLTITSVEAGDEADYYCHIWDSRVPTKWVFGGGTTLTVL
With B3, the binding result in assay [1] is “binds”.

B4: PGT122 Fab (Fab, V domains shown)
VH: QVHLQESGPGLVKPSETLSLTCNVSGTLVRDNYWSWIRQPLGKQPEWIGYVHDSGDTNYNPSLKSRVHLSLDKSKNLVSLRLTGVTAADSAIYYCATTKHGRRIYGVVAFKEWFTYFYMDVWGKGTSVTVSS
VL: VSVAPGQTARITCGEESLGSRSVIWYQQRPGQAPSLIIYNNNDRPSGIPDRFSGSPGSTFGTTATLTITSVEAGDEADYYCHIWDSRRPTNWVFGEGTTLIVL
With B4, in assay [1], the binding result is on record as “binds”.

For the origin of these results see paper PMC3642082 (PLoS Pathogens, 2013).
